This note sets out measurements from PMC12475274, “Harnessing indole scaffolds to identify small-molecule IRE1α inhibitors modulating XBP1 mRNA splicing” (Nature Communications, 2025).

This data set deals with the molecule itself. Kind of data set: crystal structure; p-IRE1α (15 mg/mL) co-crystallised with 1 mM IA107; hanging drop, 0.05 M bicine pH 9.0, 36% PEG300, 0.12 M NaCl, 20 °C; four copies in the asymmetric unit.

B1: phosphorylated human IRE1α kinase and RNase domain (residues 547–977) (domain or fragment, UniProt O75460 547-977, looked up)
chain: GSSPSLEQDDGDEETSVVIVGKISFCPKDVLGHGAEGTIVYRGMFDNRDVAVKRILPECFSFADREVQLLRESDEHPNVIRYFCTEKDRQFQYIAIELCAATLQEYVEQKDFAHLGLEPITLLQQTTSGLAHLHSLNIVHRDLKPHNILISMPNAHGKIKAMISDFGLCKKLAVGRHSFSRRSGVPGTEGWIAPEMLSEDCKENPTYTVDIFSAGCVFYYVISEGSHPFGKSLQRQANILLGACSLDCLHPEKHEDVIARELIEKMIAMDPQKRPSAKHVLKHPFFWSLEKQLQFFQDVSDRIEKESLDGPIVKQLERGGRAVVKMDWRENITVPLQTDLRKFRTYKGGSVRDLLRAMRNKKHHYRELPAEVRETLGSLPDDFVCYFTSRFPHLLAHTYRAMELCSHERLFQPYYFHEPPEPQPPVTPDAL
modifications: phosphorylated (fully phosphorylated fraction, verified by LC-MS); the phosphorylated residues are not given
notes: Human IRE1α (inositol-requiring enzyme 1 alpha), kinase and RNase domain, residues 547-977; Fully phosphorylated fraction separated from the unphosphorylated protein on the anion exchange column; also called p-IRE1α; phosphorylated IRE1α
As to B1, the binding result was “binds”.
